Measurements from patent EP1396542B1 (Genetics Institute, LLC, dated 2011).

T1: P-selectin expressed on the surface of CHO cells (CHO:P-selectin cell line) (UniProt P16109 42-830, limits assumed)
T1 construct: whole, on cells
T1 sequence (looked up): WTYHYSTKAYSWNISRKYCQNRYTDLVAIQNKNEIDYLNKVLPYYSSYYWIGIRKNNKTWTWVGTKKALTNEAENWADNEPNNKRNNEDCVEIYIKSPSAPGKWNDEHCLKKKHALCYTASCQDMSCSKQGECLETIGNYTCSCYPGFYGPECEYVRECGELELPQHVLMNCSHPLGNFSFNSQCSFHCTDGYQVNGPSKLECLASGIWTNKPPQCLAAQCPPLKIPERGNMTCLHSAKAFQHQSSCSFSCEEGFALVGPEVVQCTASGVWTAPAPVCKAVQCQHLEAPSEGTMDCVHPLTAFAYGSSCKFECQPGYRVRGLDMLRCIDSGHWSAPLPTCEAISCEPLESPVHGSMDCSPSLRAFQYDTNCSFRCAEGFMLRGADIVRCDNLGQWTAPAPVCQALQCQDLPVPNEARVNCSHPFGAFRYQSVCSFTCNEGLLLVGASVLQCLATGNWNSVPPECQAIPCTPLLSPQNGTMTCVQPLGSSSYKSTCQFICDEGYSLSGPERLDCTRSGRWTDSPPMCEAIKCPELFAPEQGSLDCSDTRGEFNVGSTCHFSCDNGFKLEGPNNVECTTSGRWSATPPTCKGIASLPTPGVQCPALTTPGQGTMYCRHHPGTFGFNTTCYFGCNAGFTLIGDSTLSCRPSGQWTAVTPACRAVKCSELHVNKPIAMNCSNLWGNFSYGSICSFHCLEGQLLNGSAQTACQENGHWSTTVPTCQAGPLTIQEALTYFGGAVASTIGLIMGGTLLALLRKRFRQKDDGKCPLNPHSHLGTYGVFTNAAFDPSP


Legend:
[1] = molecular target: T1, P-selectin expressed on the surface of …; assay: adhesion of 3H-thymidine labeled CHO:P-selectin cells to transfected COS cells, scintillation counting
[2] = molecular target: T1, P-selectin expressed on the surface of …; assay: conditioned medium coated onto plastic dishes, binding of CHO:P-selectin cells; reference is sPSL.T7 without PACE

| Binder | fold binding of CHO:P-selectin cells relative to COS mock cells [1] [fold] | fold increase in bound CHO:P-selectin cells against P-selectin ligand not co-expressed with PACE [2] [fold] |
| --- | --- | --- |
| P-selectin ligand protein, full length, expressed on COS cells co-transfected with pMT21:PL85 and the 3/4FT gene (pEA.3/4FT) (ligand, glycoprotein made in cells co-expressing (α1,3/1,4) fucosyltransferase (3/4FT), also called PSL; protein encoded by pMT21:PL85) QATEYEYLDYDFLPETEPPEMLRNSTDTTPLTGPGTPESTTVEPAARRSTGLDAGGAVTELTTELANMGNLSTDSAAMEIQTTQPAATEAQTTPLAATEAQTTRLTATEAQTTPLAATEAQTTPPAATEAQTTQPTGLEAQTTAPAAMEAQTTAPAAMEAQTTPPAAMEAQTTQTTAMEAQTTAPEATEAQTTQPTATEAQTTPLAAMEALSTEPSATEALSMEPTTKRGLFIPFSVSSVTHKGIPMAASNLSVNYPVGAPDHISVKQCLLAILILALVATIFFVCTVVLAVRLSRKGHMYPVRNYSPTEMVCISSLLPDGGEGPSATANGGLSKAKSPGLTPEPREDREGDDLTLHSFLP | ~5.4 | – |
| sPSL.T7 co-expressed with 3/4FT and PACE (PACE-cleaved soluble P-selectin ligand) (ligand, not shown: large carriers, glycoprotein made in cells co-expressing 3/4FT, also called PACE-cleaved P-selectin ligand; sPSL.T7 from the CP/PSL-T7 (R4.1) CHO-PACE line) QATEYEYLDYDFLPETEPPEMLRNSTDTTPLTGPGTPESTTVEPAARRSTGLDAGGAVTELTTELANMGNLSTDSAAMEIQTTQPAATEAQTTPLAATEAQTTRLTATEAQTTPLAATEAQTTPPAATEAQTTQPTGLEAQTTAPAAMEAQTTAPAAMEAQTTPPAAMEAQTTQTTAMEAQTTAPEATEAQTTQPTATEAQTTPLAAMEALSTEPSATEALSMEPTTKRGLFIPFSVSSVTHKGIPMAASNLSV | – | ~2 |
